These results are taken from patent publication US20030064061A1, “Bcr-Abl oligomerization domain polypeptides and uses therefor” (Whitehead Institute for Biomedical Research, priority 2001, published 2003).

The nature of data set [1]: Circular dichroism thermal denaturation. The conditions noted are these: stable α-helical structure, PBS pH 7.4, heated from 0-98° C. Type of data set: physicochemical. The procedure:
Circular dichroism experiments were performed on an Aviv 62A DS circular dichroism spectrometer. Measurements from […] were performed in a 10 μM solution of protein sample in PBS (50 mM Na phosphate, 150 mM NaCl, pH 7.4) in a 1-mm path-length cuvette. Thermal denaturation was performed in a 10 mm path-length cuvette and samples were heated from 0-98° C., with equilibration times of 2 minutes and an averaging time of 1 minute. Protein concentrations were determined by absorbance at 280 nm in 20 mM phosphate-buffered 6M guanidine-hydrochloride (pH 6.5) (H. Edelhoch, Biochemistry 6, 1948-54 (1967)).
Background: Circular dichroism is the unequal absorption of left and right circularly polarised light.

Data set [2] in a line: Solubility in physiological buffers. Type of data set: physicochemical.
Data set [3] has as its system Bcr-Abl transformation of Rat-1 fibroblasts. The experiment in a line: Rat-1 focus-formation assay. Type of data set: cell-based. The conditions noted are these: Rat-1 fibroblasts cotransfected with MIG-P210 and increasing doses of plasmid B74; foci counted after 3 weeks. The procedure: FIG. 5 is a graphic representation of results of a Rat-1 focus-formation assay. Data shown are the average of three dishes and are representative of four independent experiments. Error bars indicate the standard deviation of foci numbers between the experiments.
Whether the Bcr-Abl oligomerization domain inhibits full-length Bcr-Abl oligomerization in a dominant-negative manner was assessed. […] The total number of transformed foci was quantified after 3 weeks. Transected cultures were stained with 0.4% crystal violet to better visualize transformed foci.
For expression in mammalian cells, Bcr1-74 fragments were PCR amplified from pMBP/Bcr1-74 (with the optimal E. coli codons) as mentioned above, and inserted into the retroviral expression vector pMX-IRES-GFP (X. Liu et al., Anal Biochem 280, 20-28 (2000)) using BamHI and NotI sites. The resulting plasmid was denoted p74-IES-GFP (B74). Although it has been reported that the Bcr oligomerization domain as contained in residues 1-71 (SEQ ID NO: 19; SEQ ID NO: 20) of the Bcr protein cannot be stably expressed in mammalian cells (C. L. Sawyers, N Engl J Med 340, 1330-40 (1999)), a fair amount of Bcr1-74 (SEQ ID NO: 7) protein was detected by Western blotting when B74 was expressed in vivo. It is possible that use of E. coli-optimized codons improved expression in this domain. […] The total number of transformed foci was counted after 3 weeks.

In a further data set the target is T1, Bcr-Abl (Homo sapiens, UniProt P00519+P11274).
T1 construct: c-Abl portion (ABL1, fusion partner)
T1 sequence (P11274 1-426 limits assumed): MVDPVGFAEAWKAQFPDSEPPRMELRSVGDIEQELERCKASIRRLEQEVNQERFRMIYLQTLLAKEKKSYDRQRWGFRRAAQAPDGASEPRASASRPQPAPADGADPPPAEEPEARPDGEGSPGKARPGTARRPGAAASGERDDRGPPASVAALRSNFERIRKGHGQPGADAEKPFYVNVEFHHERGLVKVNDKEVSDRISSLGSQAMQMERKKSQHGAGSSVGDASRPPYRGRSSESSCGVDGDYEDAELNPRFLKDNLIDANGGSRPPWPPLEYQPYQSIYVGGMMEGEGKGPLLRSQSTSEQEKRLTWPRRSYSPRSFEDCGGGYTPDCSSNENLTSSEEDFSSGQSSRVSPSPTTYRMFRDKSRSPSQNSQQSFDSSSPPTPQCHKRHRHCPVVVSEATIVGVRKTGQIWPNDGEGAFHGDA
The settings on record: literature reports (Guo 1998; Wu 1999); cited from earlier work.

Data set [4] addresses Bcr1-72C38A (Bcr-Abl oligomerization domain, residues 1-72 of human Bcr, Cys38 mutated to Ala), monomer chain (human). The experiment in a line: X-ray crystal structure, buried surface.
For data set [5] the target is unchanged. The experiment in a line: X-ray crystal structure, interface analysis.
In data set [6] the target is Bcr1-72C38A dimer (domain-swapped antiparallel coiled-coil dimer seen in the crystal) (human). The experiment in a line: X-ray crystal structure, buried surface.

Consider “Ac-DIEQELERCKASIRRLEQEVNQERFRMIYLQTLLAK-NH2 [Bcr30-65]”, for which the “midpoint of thermal denaturation (Tm)” value in data set [1] came out at 60 °C. In data set [2], the “solubility in physiological buffers” value is recorded as “poor solubility”.

B1: Bcr1-74: Residues 1-74 of human Bcr; expressed in Rat-1 cells from retroviral plasmid B74 (p74-IRES-GFP) (protein, UniProt P11274 1-74, looked up, fragment)
chain: MVDPVGFAEAWKAQFPDSEPPRMELRSVGDIEQELERCKASIRRLEQEVNQERFRMIYLQTLLAKEKKSYDRQR
B1: in data set [3], the “transforming potential of Bcr-Abl (number of transformed foci)” value was “inhibited the transforming potential of Bcr-Abl”.

B2: full-length Bcr: Full-length human Bcr protein, 1271 amino acids (literature) (protein, UniProt P11274 1-1271, looked up)
chain: MVDPVGFAEAWKAQFPDSEPPRMELRSVGDIEQELERCKASIRRLEQEVNQERFRMIYLQTLLAKEKKSYDRQRWGFRRAAQAPDGASEPRASASRPQPAPADGADPPPAEEPEARPDGEGSPGKARPGTARRPGAAASGERDDRGPPASVAALRSNFERIRKGHGQPGADAEKPFYVNVEFHHERGLVKVNDKEVSDRISSLGSQAMQMERKKSQHGAGSSVGDASRPPYRGRSSESSCGVDGDYEDAELNPRFLKDNLIDANGGSRPPWPPLEYQPYQSIYVGGMMEGEGKGPLLRSQSTSEQEKRLTWPRRSYSPRSFEDCGGGYTPDCSSNENLTSSEEDFSSGQSSRVSPSPTTYRMFRDKSRSPSQNSQQSFDSSSPPTPQCHKRHRHCPVVVSEATIVGVRKTGQIWPNDGEGAFHGDADGSFGTPPGYGCAADRAEEQRRHQDGLPYIDDSPSSSPHLSSKGRGSRDALVSGALESTKASELDLEKGLEMRKWVLSGILASEETYLSHLEALLLPMKPLKAAATTSQPVLTSQQIETIFFKVPELYEIHKEFYDGLFPRVQQWSHQQRVGDLFQKLASQLGVYRAFVDNYGVAMEMAEKCCQANAQFAEISENLRARSNKDAKDPTTKNSLETLLYKPVDRVTRSTLVLHDLLKHTPASHPDHPLLQDALRISQNFLSSINEEITPRRQSMTVKKGEHRQLLKDSFMVELVEGARKLRHVFLFTDLLLCTKLKKQSGGKTQQYDCKWYIPLTDLSFQMVDELEAVPNIPLVPDEELDALKIKISQIKNDIQREKRANKGSKATERLKKKLSEQESLLLLMSPSMAFRVHSRNGKSYTFLISSDYERAEWRENIREQQKKCFRSFSLTSVELQMLTNSCVKLQTVHSIPLTINKEDDESPGLYGFLNVIVHSATGFKQSSNLYCTLEVDSFGYFVNKAKTRVYRDTAEPNWNEEFEIELEGSQTLRILCYEKCYNKTKIPKEDGESTDRLMGKGQVQLDPQALQDRDWQRTVIAMNGIEVKLSVKFNSREFSLKRMPSRKQTGVFGVKIAVVTKRERSKVPYIVRQCVEEIERRGMEEVGIYRVSGVATDIQALKAAFDVNNKDVSVMMSEMDVNAIAGTLKLYFRELPEPLFTDEFYPNFAEGIALSDPVAKESCMLNLLLSLPEANLLTFLFLLDHLKRVAEKEAVNKMSLHNLATVFGPTLLRPSEKESKLPANPSQPITMTDSWSLEVMSQVQVLLYFLQLEAIPAPDSKRQSILFSTEV
modifications: full-length
For B2, the Bcr-Abl transformation entry with Bcr-Abl is “inhibit Bcr-Abl transformation”.

B3: Bcr1-72C38A (Bcr-Abl oligomerization domain, residues 1-72 of human Bcr, Cys38 mutated to Ala), monomer chain (protein, UniProt P11274 1-72 with C38A, looked up)
chain: MVDPVGFAEAWKAQFPDSEPPRMELRSVGDIEQELERAKASIRRLEQEVNQERFRMIYLQTLLAKEKKSYDR
modifications: oligomerization domain residues 1-72 selenomethionine form also used
B3 came in with a solvent-accessible surface buried upon dimer formation in data set [4] of 4200 Å^2. In data set [5], the hydrogen bonds in the dimer interface (hydrogen bonds) came to 3, the salt bridges in the dimer interface came out at 7 salt bridges and the van der Waals contacts in the dimer interface (radius cutoff 4 Å) is 217 contacts.

B4: Bcr1-72: Recombinant wild-type polypeptide, residues 1-72 of the N-terminus of human Bcr (oligomerization domain) (protein, UniProt P11274 1-72, looked up, fragment)
chain: MVDPVGFAEAWKAQFPDSEPPRMELRSVGDIEQELERCKASIRRLEQEVNQERFRMIYLQTLLAKEKKSYDR
Regarding B4, the “midpoint of thermal denaturation (Tm)” value in data set [1] came out at 84 °C.

B5: Bcr1-72C38A dimer (domain-swapped antiparallel coiled-coil dimer seen in the crystal) (protein, UniProt P11274 1-72 with C38A, looked up)
chain: MVDPVGFAEAWKAQFPDSEPPRMELRSVGDIEQELERAKASIRRLEQEVNQERFRMIYLQTLLAKEKKSYDR
modifications: oligomerization domain residues 1-72, homodimer
B5: in data set [6], the solvent-accessible surface buried upon association of two dimers is 3400 Å^2.

B6: N-terminal 160 amino acids of Bcr: N-terminal 160 amino acids of Bcr, which contain the oligomerization domain (literature) (protein, UniProt P11274 1-160, looked up, fragment)
chain: MVDPVGFAEAWKAQFPDSEPPRMELRSVGDIEQELERCKASIRRLEQEVNQERFRMIYLQTLLAKEKKSYDRQRWGFRRAAQAPDGASEPRASASRPQPAPADGADPPPAEEPEARPDGEGSPGKARPGTARRPGAAASGERDDRGPPASVAALRSNFER
For the molecule B6, the Bcr-Abl transformation result in the data set with Bcr-Abl was “inhibit Bcr-Abl transformation”.
